According to patent US20210163581A1 (ALAMAB THERAPEUTICS, published 2021):

T1: FcγRIIa (UniProt P12318 36-218, limits assumed)
T1 construct: also called FCRIIa
T1 sequence (looked up): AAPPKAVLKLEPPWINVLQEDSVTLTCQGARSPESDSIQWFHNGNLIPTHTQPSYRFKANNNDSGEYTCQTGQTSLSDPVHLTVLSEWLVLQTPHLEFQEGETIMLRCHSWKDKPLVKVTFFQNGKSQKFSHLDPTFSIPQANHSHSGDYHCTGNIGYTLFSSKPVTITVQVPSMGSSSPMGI

B1: Ab#H (antibody, human IgG4 S228P, kappa)
heavy: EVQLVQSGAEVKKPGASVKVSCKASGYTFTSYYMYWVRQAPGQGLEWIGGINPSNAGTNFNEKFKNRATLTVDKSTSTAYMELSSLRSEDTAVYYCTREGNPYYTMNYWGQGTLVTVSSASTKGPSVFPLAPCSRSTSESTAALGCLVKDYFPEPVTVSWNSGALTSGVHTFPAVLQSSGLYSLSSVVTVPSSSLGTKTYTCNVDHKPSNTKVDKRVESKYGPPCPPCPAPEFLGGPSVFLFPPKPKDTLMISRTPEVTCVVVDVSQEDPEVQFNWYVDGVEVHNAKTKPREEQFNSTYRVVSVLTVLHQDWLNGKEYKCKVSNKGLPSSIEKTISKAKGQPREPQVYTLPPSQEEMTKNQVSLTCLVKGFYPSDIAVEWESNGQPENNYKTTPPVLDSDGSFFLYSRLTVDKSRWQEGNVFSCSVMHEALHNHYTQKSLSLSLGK
light: DVVMTQSPLSLPVTIGQPASISCKSSQSLLESDGKTYLNWLQQRPGQSPRRLIYLVSKLDSGVPDRFSGSGSGTDFTLKISRVEAEDVGVYYCWQGTHFPWTFGGGTKVEIKRTVAAPSVFIFPPSDEQLKSGTASVVCLLNNFYPREAKVQWKVDNALQSGNSQESVTEQDSKDSTYSLSSTLTLSKADYEKHKVYACEVTHQGLSSPVTKSFNRGEC
notes: also called 20170920-Ab #H-02; Mab H
B2: Ab#D (antibody, human IgG1, kappa)
heavy: not shown
light: DVVMTQSPLSLPVTIGQPASISCKSSQSLLESDGKTYLNWLQQRPGQSPRRLIYLVSKLDSGVPDRFSGSGSGTDFTLKISRVEAEDVGVYYCWQGTHFPWTFGGGTKVEIKRTVAAPSVFIFPPSDEQLKSGTASVVCLLNNFYPREAKVQWKVDNALQSGNSQESVTEQDSKDSTYSLSSTLTLSKADYEKHKVYACEVTHQGLSSPVTKSFNRGEC
notes: Light chain tie is indirect; also called 20170905-Ab #D-02
B3: Ab#L (antibody, human IgG1, kappa, L234A L235A)
heavy: not shown
light: DVVMTQSPLSLPVTIGQPASISCKSSQSLLESDGKTYLNWLQQRPGQSPRRLIYLVSKLDSGVPDRFSGSGSGTDFTLKISRVEAEDVGVYYCWQGTHFPWTFGGGTKVEIKRTVAAPSVFIFPPSDEQLKSGTASVVCLLNNFYPREAKVQWKVDNALQSGNSQESVTEQDSKDSTYSLSSTLTLSKADYEKHKVYACEVTHQGLSSPVTKSFNRGEC
notes: also called 20170908-Ab #L-02
B4: Ab#T (antibody, human IgG4 S228P, kappa, F234A L235A)
heavy: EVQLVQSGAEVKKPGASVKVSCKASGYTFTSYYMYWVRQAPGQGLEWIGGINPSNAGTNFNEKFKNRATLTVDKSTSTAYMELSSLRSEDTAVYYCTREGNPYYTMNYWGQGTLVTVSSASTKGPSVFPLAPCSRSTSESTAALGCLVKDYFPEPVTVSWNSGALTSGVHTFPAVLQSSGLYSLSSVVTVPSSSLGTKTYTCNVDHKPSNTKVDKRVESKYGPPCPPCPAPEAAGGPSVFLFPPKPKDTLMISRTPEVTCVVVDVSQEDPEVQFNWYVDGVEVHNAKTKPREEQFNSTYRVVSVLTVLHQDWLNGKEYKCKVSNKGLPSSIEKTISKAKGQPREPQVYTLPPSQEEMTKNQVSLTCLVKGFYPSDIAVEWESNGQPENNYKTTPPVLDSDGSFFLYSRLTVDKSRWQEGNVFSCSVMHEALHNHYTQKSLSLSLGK
light: DVVMTQSPLSLPVTIGQPASISCKSSQSLLESDGKTYLNWLQQRPGQSPRRLIYLVSKLDSGVPDRFSGSGSGTDFTLKISRVEAEDVGVYYCWQGTHFPWTFGGGTKVEIKRTVAAPSVFIFPPSDEQLKSGTASVVCLLNNFYPREAKVQWKVDNALQSGNSQESVTEQDSKDSTYSLSSTLTLSKADYEKHKVYACEVTHQGLSSPVTKSFNRGEC
notes: also called 20170920-Ab #T-02
B5: Ab#P (antibody, human IgG4 S228P, kappa)
heavy: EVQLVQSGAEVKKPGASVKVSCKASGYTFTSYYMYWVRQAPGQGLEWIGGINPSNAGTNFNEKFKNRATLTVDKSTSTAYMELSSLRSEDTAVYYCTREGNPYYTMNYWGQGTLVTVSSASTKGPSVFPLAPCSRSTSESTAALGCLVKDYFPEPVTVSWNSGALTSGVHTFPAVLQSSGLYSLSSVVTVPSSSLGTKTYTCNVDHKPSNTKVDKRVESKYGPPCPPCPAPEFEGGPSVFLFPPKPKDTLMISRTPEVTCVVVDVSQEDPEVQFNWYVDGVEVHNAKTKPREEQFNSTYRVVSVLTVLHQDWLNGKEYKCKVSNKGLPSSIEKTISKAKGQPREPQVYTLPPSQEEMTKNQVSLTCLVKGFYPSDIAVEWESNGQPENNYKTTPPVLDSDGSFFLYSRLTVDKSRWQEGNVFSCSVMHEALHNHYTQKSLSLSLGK
light: DVVMTQSPLSLPVTIGQPASISCKSSQSLLESDGKTYLNWLQQRPGQSPRRLIYLVSKLDSGVPDRFSGSGSGTDFTLKISRVEAEDVGVYYCWQGTHFPWTFGGGTKVEIKRTVAAPSVFIFPPSDEQLKSGTASVVCLLNNFYPREAKVQWKVDNALQSGNSQESVTEQDSKDSTYSLSSTLTLSKADYEKHKVYACEVTHQGLSSPVTKSFNRGEC

Key:
[1] = target: T2, C1q (UniProt P02745 23-245; P02746 28-253; P02747 29-245); assay: ELISA, antibody coated at 3 µg/mL, C1q titrated
T2 construct: also called Clq
Method: (§1) Plates (Nunc) were coated with antibodies at 3 μg/mL overnight at 4° C. After blocking and washing, Clq was half-log titrated in blocking buffer (600, 189.75, 60.01, 18.98, 6.00, 1.90, 0.60, 0.19, 0.06 and 0.02 μg/mL) and incubated at room temperature for 2 h. The plates were then washed and subsequently incubated with secondary antibody Sheep anti-human Clq Ab-HRP for 1 h. After washing, TMB substrate was added and the interaction was stopped by 2M HCl.

[2] = target: T3, Cx43 (peptide used in the Biacore affinity assay of Example 1); assay: SPR Biacore T200, antibody and Cx43 peptide; format and peptide not given
T3 construct: also called connexin 43; PEP1 (914)

[3] = target: T4, CD64 (UniProt P12314 16-288); assay: SPR Biacore 8K, CD64 captured by anti-His antibody, antibody as analyte, 1:1 binding fit
T4 construct: also called FCRI
Method: 2 μg/mL CD64 in running buffer (1×HBS-EP+) was injected to Fc2 of channel 1-4 at a flow rate of 10 μL/min for 30 s. 6 concentrations (40, 20, 10, 5, 2.5 and 1.25 nM) of analyte 20170905-Ab #C-02, 20170905-Ab #D-02, 20170908-Ab #G-02, 20170920-Ab #H-02 and running buffer were injected orderly to Fc1-Fc2 of channel 1-4 at a flow rate of 30 μL/min for an association phase of 180, followed by 400 dissociation. Repeat 6 cycles of capturing ligand and running analyte according to analyte concentrations in ascending order. 10 mM glycine pH 1.5 as regeneration buffer was injected following every dissociation phase.
(§2) Surface channels Fc1 without capturing ligand was used as control surface for reference subtraction. Final data of each interaction w as deducted from reference channel and buffer channel data. The experimental data of 20170905-Ab #C-02, 20170905-Ab #D-02, 20170908-Ab #G-02, 20170920-Ab #H-02 binding to CD64 was fitted by 1:1 binding mode. The 10240 nM curves of analyte 20170907-Ab #K-02, 20170908-Ab #L-02, 20170915-Ab #O-02, 20170919-Ab #P-02, 20170919-Ab #S-02 and 20170920-Ab #T-02 were removed to allow a better fit.

[4] = target: T5, human FcRn (human, UniProt P55899 24-297; P61769 21-119); assay: SPR Biacore 8K, antibody amine-coupled to CM5, FcRn as analyte, pH 6.0, steady state affinity fit
T5 construct: The b2m chain is my addition
Method: The activator was prepared by mixing 400 mM EDC and 100 mM NHS (GE) immediately prior to injection. The CM5 sensor chip was activated for 420 s with the mixture at a flow rate of 10 μL/min. 5 μg/mL of antibodies in 10 mM NaAc (pH 5.5) were then injected to Fc2 of channel 1-8 respectively at a flow rate of 10 μL/min for 60 s. The relative Fc1 was blocked. The chip w as deactivated by 1 M ethanolamine-HCl (GE) at a flow rate of 10 μL/min for 420 s.
Analyte FcRn was injected to channel 1-8 respectively. 8 concentrations of FcRn (0, 93.75, 187.5, 375, 750, 1500, 3000 and 6000 nM) were monitored at a flow rate of 30 μL/min for an association phase of 60 s, followed by 90 s dissociation. After each cycle of interaction analysis, the sensor chip surface was regenerated with 1×PBS (pH 7.4) at a flow rate of 10 μL/min for 30 s.
Surface channels Fc1 without immobilized antibodies were used as control surface for reference subtraction. Final data of each interaction was deducted from reference channel and buffer channel data.

[5] = target: T2, C1q; assay: ELISA, antibody coated at 3 µg/mL, C1q titrated, anti-human C1q-HRP detection
Method: as §1

[6] = target: T1, FcγRIIa; assay: SPR Biacore 8K, receptor captured by anti-His antibody, antibody as analyte, steady state affinity fit; unit inferred
Method: 1 μg/mL FcγRIIa, FcγRIIb, FcγRIIIa, or FcγRIIIb in running buffer (1×HBS-EP+) was injected to Fc2 of channel 1-8 at a flow rate of 10 μL/min for 15 s. Analytes were injected to channel 1-8 respectively. A series of analyte concentrations (seeing Table 3 below) were monitored at a flow rate of 30 μL/min for an association phase of 60 s, followed by 90 s dissociation. 10 mM glycine pH 1.5 as regeneration buffer was injected following every dissociation phase.
Surface channels Fc1 without capturing ligand was used as control surface for reference subtraction. Final data of each interaction was deducted from reference channel and buffer channel data. The experimental data of antibodies binding to FcγRIIa, FcγRIIb, FcγRIIIa, and FcγRIIIb was fitted by steady state affinity mode and shown in Table 4 below.

[7] = target: T4, CD64; assay: SPR Biacore 8K, CD64 captured by anti-His antibody, antibody as analyte, steady state affinity fit; steady state affinity fit; no ka/kd
Method: (§3) 2 μg/mL CD64 in running buffer (1×HBS-EP+) was injected to Fc2 of channel 1-6 at a flow rate of 10 μL/min for 30 s. […] Repeat 8 cycles of capturing ligand and running analyte according to analyte concentrations in ascending order. 10 mM glycine pH 1.5 as regeneration buffer was injected following every dissociation phase.
as §2

[8] = target: T4, CD64; assay: SPR Biacore 8K, CD64 captured by anti-His antibody, antibody as analyte, steady state affinity fit
Method: as §3, §2

T2 sequence (P02745 23-245, chain 1 of 3): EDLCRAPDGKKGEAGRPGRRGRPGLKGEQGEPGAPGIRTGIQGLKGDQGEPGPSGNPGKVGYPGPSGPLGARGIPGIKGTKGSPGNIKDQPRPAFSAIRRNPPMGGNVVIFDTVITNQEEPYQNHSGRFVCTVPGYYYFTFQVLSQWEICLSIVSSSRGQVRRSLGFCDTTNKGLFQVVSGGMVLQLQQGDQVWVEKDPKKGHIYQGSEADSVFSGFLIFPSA
T2 sequence (P02746 28-253, chain 2 of 3): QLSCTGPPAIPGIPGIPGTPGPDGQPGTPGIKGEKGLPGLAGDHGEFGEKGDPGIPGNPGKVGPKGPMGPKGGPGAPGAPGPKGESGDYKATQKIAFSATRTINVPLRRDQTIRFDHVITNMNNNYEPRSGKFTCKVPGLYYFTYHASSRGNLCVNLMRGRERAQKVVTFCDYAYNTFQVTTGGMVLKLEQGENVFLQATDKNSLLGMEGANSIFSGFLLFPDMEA
T2 sequence (P02747 29-245, chain 3 of 3): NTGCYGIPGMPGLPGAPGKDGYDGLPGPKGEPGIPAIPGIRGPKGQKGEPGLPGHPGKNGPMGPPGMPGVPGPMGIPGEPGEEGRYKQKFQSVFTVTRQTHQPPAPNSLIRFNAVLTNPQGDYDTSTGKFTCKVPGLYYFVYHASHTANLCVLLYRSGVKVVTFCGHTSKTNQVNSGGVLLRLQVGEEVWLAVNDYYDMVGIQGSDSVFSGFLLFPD
T5 sequence (P55899 24-297 limits assumed, chain 1 of 2): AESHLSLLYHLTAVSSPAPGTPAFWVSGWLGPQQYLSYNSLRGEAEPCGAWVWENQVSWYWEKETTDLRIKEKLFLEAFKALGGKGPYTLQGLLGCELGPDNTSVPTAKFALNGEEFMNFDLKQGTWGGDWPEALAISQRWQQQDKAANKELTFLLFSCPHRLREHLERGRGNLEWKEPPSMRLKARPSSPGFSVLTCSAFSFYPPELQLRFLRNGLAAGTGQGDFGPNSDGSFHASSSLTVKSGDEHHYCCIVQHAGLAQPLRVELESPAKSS
T5 sequence (P61769 21-119 limits assumed, chain 2 of 2): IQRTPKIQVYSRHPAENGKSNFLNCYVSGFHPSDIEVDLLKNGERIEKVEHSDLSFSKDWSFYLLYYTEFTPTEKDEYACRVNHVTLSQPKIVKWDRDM
T4 sequence (P12314 16-288 limits assumed): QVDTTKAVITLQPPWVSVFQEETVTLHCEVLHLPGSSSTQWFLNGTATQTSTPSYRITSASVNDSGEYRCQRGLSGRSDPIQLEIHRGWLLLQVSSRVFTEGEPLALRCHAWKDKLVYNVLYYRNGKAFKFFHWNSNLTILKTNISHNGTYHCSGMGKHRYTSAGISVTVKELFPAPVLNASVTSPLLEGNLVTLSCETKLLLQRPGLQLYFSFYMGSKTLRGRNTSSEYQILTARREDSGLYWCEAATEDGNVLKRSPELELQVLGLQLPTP

Row | Binder | binding result [1] | Kd [2] [nM] | Kd [3] [nM] | koff [3] [s⁻¹] | kon [3] [M⁻¹ s⁻¹] | Kd [4] [nM] | Kd [5] [nM] | Kd [6] [nM] | Kd [7] [nM] | Kd [8] [nM]
1 | B1 | no binding | 46.5 | 5.73 | 0.00318 | 554000 | 2610 | – | – | – | –
2 | B2 | – | 198 | 1.92 | 0.000925 | 482000 | 2250 | 75 | 3390 | – | –
3 | B3 | – | 10.1 | – | – | – | 2600 | – | – | 1620 | –
4 | B4 | no binding | 0.582 | – | – | – | 2560 | – | – | – | 3050
5 | B5 | no binding | 8.58 | – | – | – | 2550 | – | – | – | 2790
